Where a chain is given by its changes, count along the chain named. Read-outs that look alike come from different tables or passages of the source.
T1: Cyno monkey CD47 (Cyno monkey, UniProt A0A2K5X523 19-139)
T1 chain: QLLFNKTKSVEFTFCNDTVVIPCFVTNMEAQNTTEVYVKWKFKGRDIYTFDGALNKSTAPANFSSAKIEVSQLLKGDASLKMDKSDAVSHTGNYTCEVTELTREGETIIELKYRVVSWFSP

T2: mouse CD47 (mouse, UniProt Q61735 19-140)
T2 chain: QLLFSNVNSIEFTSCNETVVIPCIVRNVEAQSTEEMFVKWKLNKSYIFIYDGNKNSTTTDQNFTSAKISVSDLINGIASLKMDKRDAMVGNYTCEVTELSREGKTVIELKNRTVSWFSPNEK

T3: rat CD47 (rat, UniProt P97829 19-140)
T3 chain: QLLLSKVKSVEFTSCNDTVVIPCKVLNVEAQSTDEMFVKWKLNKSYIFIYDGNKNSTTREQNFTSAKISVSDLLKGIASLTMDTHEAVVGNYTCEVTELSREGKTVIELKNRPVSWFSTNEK

B1: Construct 50 (SIRPα fusion polypeptide SEQ ID NO: 10 construct without the YTE mutation, i.e. with the wild type IgG4 Fc domain) (Fc fusion)
chain: EEELQIIQPDKSVLVAAGETATLRCTITSLFPVGPIQWFRGAGPGRVLIYNQRQGPFPRVTTVSDTTKRNNMDFSIRIGNITPADAGTYYCIKFRKGSPDDVEFKSGAGTELSVRAKPSAAAPPCPPCPAPEFLGGPSVFLFPPKPKDTLMISRTPEVTCVVVDVSQEDPEVQFNWYVDGVEVHNAKTKPREEQFNSTYRVVSVLTVLHQDWLNGKEYKCKVSNKGLPSSIEKTISKAKGQPREPQVYTLPPSQEEMTKNQVSLTCLVKGFYPSDIAVEWESNGQPENNYKTTPPVLDSDGSFFLYSRLTVDKSRWQEGNVFSCSVMHEALHNHYTQKSLSLSLGK
B2: Construct 67 (SIRPα fusion polypeptide of SEQ ID NO: 10, SIRPα domain of SEQ ID NO: 2 and IgG4 Fc domain with a YTE mutation) (Fc fusion)
chain: B1 chain with M151Y, S153T, T155E

Experiments:
[1] = biological target: T4, rhCD47-his (human CD47) (human, UniProt Q08722 19-139); assay: BLI (Octet)
[2] = biological target: T1, Cyno monkey CD47; assay: BLI (Octet)
[3] = biological target: CD47 on human CD45 negative red blood cells (human, UniProt Q08722 19-323); assay: FACS cell binding
[4] = biological target: T4, rhCD47-his (human CD47); assay: BLI (Octet); remark: listed apart in the source
[5] = biological target: T1, Cyno monkey CD47; assay: BLI (Octet)
[6] = biological target: T2, mouse CD47; assay: BLI (Octet)
[7] = biological target: T3, rat CD47; assay: BLI (Octet)

Binder | Kd [1] | Kd [2] | EC50 [3] | Kd [4] | Kd [5] | Kd [6] | Kd [7]
B1 | 0.03 nM | 0.0974 nM | 12 nM | 0.03 nM | 0.0974 nM | 5.12 nM | 1.03 nM
B2 | 0.0117 nM | 0.0211 nM | 5.8 nM | 0.0117 nM | 0.0211 nM | 1.61 nM | 0.681 nM
